Data taken from patent US20190248848A1 (published 2019).

Legend:
[1] = target: T1, biotinylated histone H3 peptide trimethylated at lysine 27, H3K27me3 (21-44) (UniProt P68431 22-45, trimethyl-lysine at K27; biotinylated); experiment: peptide microspot array; apparent Kd; 10 uM H3K27me3; replicate 1
[2] = target: T1, biotinylated histone H3 peptide …; experiment: peptide microspot array; apparent Kd; 10 uM H3K27me3; replicate 2
[3] = target: T1, biotinylated histone H3 peptide …; experiment: peptide microspot array; apparent Kd; 10 uM H3K27me3; replicate 3
[4] = target: T1, biotinylated histone H3 peptide …; experiment: peptide microspot array; apparent Kd; 20 uM H3K27me3; replicate 2
[5] = target: T1, biotinylated histone H3 peptide …; experiment: peptide microspot array; apparent Kd; 20 uM H3K27me3; replicate 3
[6] = target: T1, biotinylated histone H3 peptide …; experiment: peptide microspot array; apparent Kd; 50 uM H3K27me3; replicate 1
[7] = target: T1, biotinylated histone H3 peptide …; experiment: peptide microspot array; apparent Kd; 50 uM H3K27me3; replicate 2

B1: PcTF, monovalent Polycomb-based transcription factor (pET28 construct, purified from E. coli) (designed binder)
chain: MELSAVGERVFAAEALLKRRIRKGRMEYLVKWKGWSQKYSTWEPEENILDARLLAAFEERER
How did the Kd [1] turn out when B1 was run?
The Kd was 1.54 µM.

And the Kd [2]?
Its Kd is 1.55 µM.

And the Kd [3]?
Its Kd is 7.6 µM.

What about the Kd [4] of the same binder?
The Kd was 5.66 µM.

What about the Kd [5] of the same binder?
The Kd was 6.45 µM.

What about the Kd [6] of the same binder?
The Kd was 3.5 µM.

What about the Kd [7] of the same binder?
The Kd was 7.73 µM.
